Patent CN114634568A (SHENZHEN PHENPENG BIOTHERAPY CO LTD, dated 2022)

Columns and labels:
[1] = molecular target: T1, hu(人)BCMA ECD His, ACRO, BCA-H522y (human, UniProt Q02223 1-54); experiment: ELISA, hu BCMA ECD His coated at 2 μg/mL
T1 construct: extracellular domain; Bought reagent; also called hu BCMA ECD His; BCMA抗原; not shown: His tag
T1 sequence (looked up): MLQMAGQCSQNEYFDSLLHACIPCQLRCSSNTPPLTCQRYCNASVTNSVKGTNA

[2] = molecular target: T2, 人BCMA全长 (K562-BCMA细胞株和CHO-BCMA细胞株表面表达) (human, UniProt Q02223 1-184); experiment: flow cytometry on K562-BCMA and CHO-BCMA cells, APC anti-human IgG Fc
T2 construct: whole, on cells; also called BCMA表达阳性的细胞
T2 sequence (looked up): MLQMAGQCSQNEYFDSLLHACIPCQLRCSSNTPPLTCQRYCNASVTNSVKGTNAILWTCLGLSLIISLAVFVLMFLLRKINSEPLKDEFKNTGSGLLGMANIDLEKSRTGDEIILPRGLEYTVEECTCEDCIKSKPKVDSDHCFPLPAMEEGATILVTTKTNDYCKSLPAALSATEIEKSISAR

h BCMA ECD mFc = molecular target: T3, h BCMA ECD mFc (human, UniProt Q02223 1-54); experiment: BLI (Fortebio), h BCMA ECD mFc 3 ug/mL loaded on AMC biosensor, antibody in solution
T3 construct: extracellular domain; also called hBCMA-mFc; not shown: mouse Fc (mFc)
T3 sequence (looked up): T1 sequence (looked up)

Measured: binding result

B1: 鼠源BCMA抗体 mVH-mVL (CN201911298620.7专利中5E2 BCMA抗体) (antibody, V domains shown)
VH: EVQLQQSGPELIKPGASVKMSCKASGYTFTSYVVHWVKQKPGQGLEWIGYIIPYNDDTKYNEKFKGKATLTSDKSSSTAYMELSSLTSEDSAVYYCARWDYDDGYFDYWGQGTTLTVSS
VL: DVVMTQTPLSLPVTLGDQASISCRSSQSLLHSNGNTYLHWYLQKPGQSPKLLIYKVSNRFSGVPDRFSGSGSGTDFTLKISRVEAEDLGVYFCSQITHIPFTFGSGTKLEIKR
notes: In flow cytometry the detection reagent was APC anti-human IgG Fc
binds: all assays above
